The data set in a line: self-splicing fitness, log relative to wild type (ln ratio); higher = more splicing; Tetrahymena group I intron in knt gene, E. coli kanamycin selection, DiMSum; sequences stand for … in CUCUCU…GGAGGGAAAAGUUAUCAGGCAUGCACCUGGUAGCUAGUCUUUAAACCAAUAGAUUGCAUCGGUUUAAAAGGCAAGACCGUCAAAUUGCGGGAAAGGGGUCAACAGCCGUUCAGUACCAAGUCUCAGGGGAAACUUUGAGAUGGCCUUGCAAAGGGUAUGGUAAUAAGCUGACGGACAUGGUCCUAACCACGCAGCCAAGUCCUAAGUCAACAGAUCUUCUGUUGAUAUGGAUGCAGUUCACAGACUAAAUGUCGGUCGGGGAAGAUGUAUUCUUCUCAUAAGAUAUAGUCGGACCUCUCCUUAAUGGGAGCUAGCGGAUGAAGUGAUGCAACACUGGAGCCGCUGGGAACUAAUUUGUAUGCGAAAGUAUAUUGAUUAGUUUUGGAGUACUCGUGGUCG
In short, it runs like this: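 Library with all eight P1ex-region intron nucleotides randomised, intron inside the knt kanamycin-resistance gene on pET-22b(+), in E. coli BL21(DE3). Cells grew overnight at 37°C or 30°C on LB agar with or without 25 μg/mL kanamycin (plus 100 μg/mL carbenicillin, 50 μM IPTG, 0.2% rhamnose), in six replicate transformations. Pooled colonies were amplicon-sequenced on Illumina HiSeq 2500. DiMSum fitness is the error-weighted combination of wild-type-normalised replicate fold changes, kanamycin versus none.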

± gives the uncertainty stated by the source.

This note sets out measurements from the supplement of paper PMC7877785.

Turning to CACGAGCAAUAUUACGCGGG, the “self-splicing fitness (ln)” value is -4.05 ± 0.26 (30 °C) and -2.88 ± 0.26 (37 °C).
On the same counts, the results for CCUUAGCAAUAUUACGCCUA are -2.69 ± 0.48 and -1.4 ± 0.35.
Take AUUGAGCAAUAUUACGGAGG: the “self-splicing fitness (ln)” value (30 °C) is -2.97 ± 0.22.
With AUCUAGCAAUAUUACGAUUA, the “self-splicing fitness (ln)” value by setting is: (30 °C) -0.971 ± 0.11; (37 °C) -0.836 ± 0.11.
Consider CUUUAGCAAUAUUACGUGGA, for which the “self-splicing fitness (ln)” value (30 °C) is -3.4 ± 0.4 and the “self-splicing fitness (ln)” value (37 °C) was -3.58 ± 0.31.
On the same counts, the results for CGCAAGCAAUAUUACGUUGA are -2.6 ± 0.13 and -2.02 ± 0.15.
For CACGAGCAAUAUUACGACGU, in that order: -3.25 ± 0.17 and -3.34 ± 0.23.
Turning to ACUAAGCAAUAUUACGAAAG, the “self-splicing fitness (ln)” value is, setting by setting: (30 °C) -1.76 ± 0.14; (37 °C) -1.55 ± 0.16.
On the same counts, the results for UCGCAGCAAUAUUACGUACG are -1.12 ± 0.12 and -0.686 ± 0.13.
For GCCUAGCAAUAUUACGACUU, in that order: -1.37 ± 0.077 and -0.298 ± 0.079.
On the same counts, the results for AAUUAGCAAUAUUACGGCCU are -0.324 ± 0.097 and 0.38 ± 0.16.
On to GUAGAGCAAUAUUACGCGAU, for which the “self-splicing fitness (ln)” value by setting is: (30 °C) -3.22 ± 0.2; (37 °C) 0.14 ± 0.16.
Regarding AAUCAGCAAUAUUACGUGUU, the “self-splicing fitness (ln)” value is, setting by setting: (30 °C) -0.901 ± 0.056; (37 °C) 0.209 ± 0.064.
For GGCGAGCAAUAUUACGAUAU, in that order: -2.12 ± 0.12 and -0.859 ± 0.12.
In the case of CCUUAGCAAUAUUACGGCCU, the “self-splicing fitness (ln)” value (37 °C) is -0.938 ± 0.34.
Consider GACCAGCAAUAUUACGAUUA, for which the “self-splicing fitness (ln)” value is, setting by setting: (30 °C) -0.607 ± 0.056; (37 °C) -0.446 ± 0.072.
On the same counts, the results for ACCAAGCAAUAUUACGAAUU are -3.46 ± 0.17 and -2.13 ± 0.14.
On the same counts, the results for UUCGAGCAAUAUUACGUGGU are -3.49 ± 0.28 and -3.18 ± 0.2.
For CGGUAGCAAUAUUACGGGUA, the “self-splicing fitness (ln)” value by setting is: (30 °C) -2.65 ± 0.21; (37 °C) -3.01 ± 0.28.
Regarding CUGUAGCAAUAUUACGAUGG, the “self-splicing fitness (ln)” value by setting is: (30 °C) -2.74 ± 0.18; (37 °C) -1.81 ± 0.19.
With CAGGAGCAAUAUUACGAUGC, the “self-splicing fitness (ln)” value (37 °C) was -2.83 ± 0.26.
As for UUCUAGCAAUAUUACGCGUC, the “self-splicing fitness (ln)” value reads like this: (30 °C) -3.14 ± 0.39; (37 °C) -1.45 ± 0.25.
On the same counts, the results for ACAGAGCAAUAUUACGAUAA are -4.19 ± 0.46 and -2.51 ± 0.36.
On the same counts, the results for UGGCAGCAAUAUUACGGUGG are -0.928 ± 0.079 and -0.811 ± 0.11.
For CUACAGCAAUAUUACGUUUA, in that order: -3.39 ± 0.22 and -2.86 ± 0.19.
Regarding GACUAGCAAUAUUACGGCGC, the “self-splicing fitness (ln)” value was 0.0438 ± 0.14 (30 °C) and -0.0936 ± 0.17 (37 °C).
For UUGCAGCAAUAUUACGUCAG, in that order: -0.419 ± 0.11 and 0.42 ± 0.14.
For the sequence AACUAGCAAUAUUACGAUAA, the “self-splicing fitness (ln)” value (30 °C) was -1.41 ± 0.099 and the “self-splicing fitness (ln)” value (37 °C) was -0.94 ± 0.099.
GUAUAGCAAUAUUACGGCCC: the “self-splicing fitness (ln)” value (37 °C) is -0.246 ± 0.44.
Regarding UUUCAGCAAUAUUACGUGUA, the “self-splicing fitness (ln)” value was -2.47 ± 0.12 (30 °C) and -1.57 ± 0.1 (37 °C).
For CGCCAGCAAUAUUACGGACG, in that order: -4.63 ± 0.31 and -2.95 ± 0.28.
For the sequence GUAUAGCAAUAUUACGAGCG, the “self-splicing fitness (ln)” value was -1.98 ± 0.16 (30 °C) and -1.39 ± 0.14 (37 °C).
On the same counts, the results for UAAAAGCAAUAUUACGCCUA are 0.161 ± 0.073 and -0.367 ± 0.081.
On the same counts, the results for AAGAAGCAAUAUUACGCAUC are -1.92 ± 0.22 and -0.986 ± 0.2.
As for AAGCAGCAAUAUUACGGCCU, the “self-splicing fitness (ln)” value (30 °C) is -0.182 ± 0.057 and the “self-splicing fitness (ln)” value (37 °C) turned out to be 0.636 ± 0.074.
For UAAAAGCAAUAUUACGUCAC, in that order: -3 ± 0.2 and -2.25 ± 0.28.
On the same counts, the results for CGAUAGCAAUAUUACGCCGU are -2.9 ± 0.15 and -1.78 ± 0.14.
For CGGUAGCAAUAUUACGGGGG, in that order: -3.21 ± 0.22 and -3.01 ± 0.43.
As for GUUCAGCAAUAUUACGGCGG, the “self-splicing fitness (ln)” value runs as follows: (30 °C) -4.13 ± 0.47; (37 °C) -2.06 ± 0.38.
Regarding UCCUAGCAAUAUUACGAUCU, the “self-splicing fitness (ln)” value (37 °C) is -1.69 ± 0.37.
On to GUACAGCAAUAUUACGGGUG, for which the “self-splicing fitness (ln)” value is, setting by setting: (30 °C) -2.02 ± 0.098; (37 °C) -1.67 ± 0.13.
On the same counts, the results for CUUCAGCAAUAUUACGAAUU are -2.66 ± 0.19 and -0.66 ± 0.13.
Turning to UUUAAGCAAUAUUACGCUUA, the “self-splicing fitness (ln)” value (37 °C) is -3.03 ± 0.33.
In the case of UUUAAGCAAUAUUACGGAGC, the “self-splicing fitness (ln)” value runs as follows: (30 °C) -1.94 ± 0.25; (37 °C) -1.43 ± 0.47.
On the same counts, the results for CGUCAGCAAUAUUACGCUGC are -2.95 ± 0.26 and -2.22 ± 0.35.
Take CGGGAGCAAUAUUACGUCUC: where the note is “30 °C”, the “self-splicing fitness (ln)” value is -2.33 ± 0.24.
With GAGGAGCAAUAUUACGUGUG, the “self-splicing fitness (ln)” value runs as follows: (30 °C) -2.33 ± 0.22; (37 °C) -2.54 ± 0.26.
For CGCCAGCAAUAUUACGACCG, in that order: -0.693 ± 0.083 and -0.103 ± 0.12.
For GCAGAGCAAUAUUACGCCCA, in that order: -1.07 ± 0.28 and -0.895 ± 0.46.
Regarding AAGGAGCAAUAUUACGUGGU, the “self-splicing fitness (ln)” value by setting is: (30 °C) -2.94 ± 0.2; (37 °C) -1.36 ± 0.22.
For UGACAGCAAUAUUACGUGCG, in that order: -1.12 ± 0.086 and -0.119 ± 0.097.
For UUAUAGCAAUAUUACGGUUC, in that order: -2.77 ± 0.23 and -2.16 ± 0.25.
On the same counts, the results for AAACAGCAAUAUUACGUCGU are -2.13 ± 0.071 and -0.661 ± 0.071.
Take UCUAAGCAAUAUUACGAUAC: the “self-splicing fitness (ln)” value is, setting by setting: (30 °C) -2.38 ± 0.25; (37 °C) -2.95 ± 0.47.
For CUCAAGCAAUAUUACGACCA, the “self-splicing fitness (ln)” value (37 °C) was -0.985 ± 0.26.
As for AUUCAGCAAUAUUACGCCUU, the “self-splicing fitness (ln)” value by setting is: (30 °C) -0.723 ± 0.079; (37 °C) -0.133 ± 0.096.
For CUGCAGCAAUAUUACGACAA, the “self-splicing fitness (ln)” value (37 °C) is -0.88 ± 0.19.
With GCAUAGCAAUAUUACGUCCG, the “self-splicing fitness (ln)” value (30 °C) is -1.44 ± 0.081 and the “self-splicing fitness (ln)” value (37 °C) was -0.899 ± 0.13.
For AGAUAGCAAUAUUACGGAAU, in that order: -2.07 ± 0.15 and -0.731 ± 0.14.
For CGACAGCAAUAUUACGGUCC, in that order: -1.13 ± 0.11 and -0.69 ± 0.14.
For ACAUAGCAAUAUUACGGUCA, the “self-splicing fitness (ln)” value (30 °C) was -0.873 ± 0.13 and the “self-splicing fitness (ln)” value (37 °C) worked out at 0.165 ± 0.13.
On the same counts, the results for GCAAAGCAAUAUUACGCACC are -1.15 ± 0.17 and -1.45 ± 0.16.
On the same counts, the results for GCUAAGCAAUAUUACGAAUA are -2.16 ± 0.21 and -1.73 ± 0.24.
As to GAGGAGCAAUAUUACGACCG, for the setting “37 °C”, the “self-splicing fitness (ln)” value is -0.621 ± 0.31.
In the case of UCUGAGCAAUAUUACGUUAU, the “self-splicing fitness (ln)” value is, setting by setting: (30 °C) -3.6 ± 0.31; (37 °C) -3.68 ± 0.42.
On the same counts, the results for CGUAAGCAAUAUUACGACAU are -3.255 ± 0.022 and -1.8 ± 0.035.
UUGCAGCAAUAUUACGGGCG: the “self-splicing fitness (ln)” value runs as follows: (30 °C) -0.91 ± 0.11; (37 °C) -0.511 ± 0.11.
For GACAAGCAAUAUUACGGCUC, in that order: -0.105 ± 0.07 and 0.0794 ± 0.1.
On the same counts, the results for CUACAGCAAUAUUACGCGGG are -2.27 ± 0.094 and -2.56 ± 0.12.
Turning to AUAUAGCAAUAUUACGAGGC, the “self-splicing fitness (ln)” value (30 °C) was -2.74 ± 0.26.
For the sequence AUAUAGCAAUAUUACGCUAG, the “self-splicing fitness (ln)” value runs as follows: (30 °C) -1.69 ± 0.25; (37 °C) -1.19 ± 0.3.
For CGGCAGCAAUAUUACGGAGA, in that order: -1.63 ± 0.3 and -1.62 ± 0.29.
In the case of GCGGAGCAAUAUUACGAAAC, the “self-splicing fitness (ln)” value by setting is: (30 °C) -3.16 ± 0.31; (37 °C) -0.996 ± 0.24.
Consider GCACAGCAAUAUUACGUCAU, for which the “self-splicing fitness (ln)” value reads like this: (30 °C) -1.89 ± 0.071; (37 °C) -0.731 ± 0.082.
For ACGAAGCAAUAUUACGUACG, in that order: -3.8 ± 0.33 and -0.988 ± 0.15.
On the same counts, the results for AUCCAGCAAUAUUACGUUGU are -3.92 ± 0.12 and -2.09 ± 0.093.
Consider AAUGAGCAAUAUUACGGUGG, for which the “self-splicing fitness (ln)” value is -3.48 ± 0.21 (30 °C) and -1.89 ± 0.24 (37 °C).
For UCCGAGCAAUAUUACGCAGG, in that order: -3.19 ± 0.17 and -1.88 ± 0.19.
Consider UCAGAGCAAUAUUACGAAAA, for which the “self-splicing fitness (ln)” value (37 °C) was -2.13 ± 0.48.
